We go through four molecules from paper doi:10.1101/2022.08.30.505852 (bioRxiv, 2022).

The labels stand for the following.
T1: βCAT_(CTERM), β-catenin residues 666-781 (human, UniProt P35222 666-781)
T1 sequence (looked up): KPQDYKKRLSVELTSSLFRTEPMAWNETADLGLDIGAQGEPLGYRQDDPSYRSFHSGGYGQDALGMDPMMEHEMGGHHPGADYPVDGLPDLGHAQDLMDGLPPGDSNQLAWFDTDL

T2: βCAT_(CTERM) D764A (human, UniProt P35222 666-781, D764A)
T2 sequence (looked up): T1 sequence (looked up) with D99A

T3: βCAT_(CTERM) D761A (human, UniProt P35222 666-781, D761A)
T3 sequence (looked up): T1 sequence (looked up) with D96A

T4: βCAT_(CTERM) D751A (human, UniProt P35222 666-781, D751A)
T4 sequence (looked up): T1 sequence (looked up) with D86A

T5: βCAT_(CTERM) F777A (human, UniProt P35222 666-781, F777A)
T5 sequence (looked up): T1 sequence (looked up) with F112A

B1: βCAT_(TAD2), β-catenin residues 730-781 (domain or fragment, human, UniProt P35222 730-781, looked up)
chain: GMDPMMEHEMGGHHPGADYPVDGLPDLGHAQDLMDGLPPGDSNQLAWFDTDL
B2: TAZ2 domain of p300 (residues 1723-1812 with four stabilizing mutations) (domain or fragment, UniProt Q09472 1723-1812, looked up)
chain: ATQSPGDSRRLSIQRAIQSLVHAAQCRNANCSLPSCQKMKRVVQHTKGCKRKTNGGCPICKQLIALAAYHAKHCQENKCPVPFCLNIKQK
B3: TAZ1 domain of CBP (residues 346-440) (domain or fragment)
chain: not shown

Assay in all cases: ITC
(In ITC the heat of successive injections is recorded.)

For assay [1], the target named is B3.
Assay [2] has as its target B1.
The target of assay [3] is T1, βCAT_(CTERM), β-catenin residues 666-781.
In assay [4] the target is T2, βCAT_(CTERM) D764A.
The target of assay [5] is T3, βCAT_(CTERM) D761A.
For assay [6], the target named is T4, βCAT_(CTERM) D751A.
Assay [7] has as its target T5, βCAT_(CTERM) F777A.

Positions count from the first letter of the chain named. “And” between values parts separate entries of the source, which are not always exact repeats. Equal values may be shown once.

The term Kd denotes a measure of binding affinity in units of concentration. Low readings indicate tighter binding, high ones weaker binding. As for B1, in assay [1], the Kd was found to be 380 ± 20 nM.

In turn, VDGLPDLGHAQDLMDGLPPGDSNQLAWFDTDL (peptide, UniProt P35222 750-781, looked up) [βCAT_(750-781), β-catenin residues 750-781] gave a Kd in assay [1] of 2170 ± 70 nM.

In the case of B2, the “Kd2 (two-site fit)” value in assay [2] stood at 1.18 ± 0.43 µM; in assay [3], 3.42 ± 0.2 µM.

As for B3, the Kd in assay [4] was 320 nM and 600 nM; in assay [5], 600 nM and 390 nM; in assay [6], 390 nM and 550 nM; in assay [7], 550 nM and 320 nM. For the same molecule, the “Kd2 (two-site fit)” value in assay [3] turned out to be 0.65 ± 0.22 µM.
